Reference: US20100260668A1 (published 2010)
Values belong to the binder of their own block, whether it stands above or below them.

Legend:
[1] = molecular target: T1, VEGF (VEGF 1-165 aa, R&D Systems 293-VE-010) (UniProt P15692 27-191); assay: Direct bind ELISA, VEGF coated on plate; VEGF domain C-term., HC short/LC short
T1 construct: bought reagent; also called vascular endothelial growth factor

HGF = HGF (UniProt P14210 32-728); assay: SPR (Biacore); parent antibody
PlGF (Placental GF) = molecular target: T2, PlGF (Placental GF) (UniProt P49763-2 21-149, limits assumed); assay: SPR (Biacore); parent antibody
T2 sequence (looked up): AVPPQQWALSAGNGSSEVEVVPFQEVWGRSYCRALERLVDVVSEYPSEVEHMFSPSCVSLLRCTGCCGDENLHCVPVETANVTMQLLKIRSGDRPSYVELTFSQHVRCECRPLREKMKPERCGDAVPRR

[2] = molecular target: T1, VEGF (VEGF 1-165 aa, R&D Systems …); assay: Direct bind ELISA, VEGF coated on plate; VEGF domain N-term., HC short/LC short
[3] = molecular target: T1, VEGF (VEGF 1-165 aa, R&D Systems …); assay: Direct bind ELISA, VEGF coated on plate; VEGF domain C-term., HC long/LC long
recombinant human HGF = molecular target: T3, recombinant human HGF (human, UniProt P14210 32-728); assay: competition ELISA: DVD-Ig co-incubated with 2 nM soluble c-Met Fc on coated HGF (competitor c-Met Fc)
T3 construct: The target there is entered as this HGF; also called hepatocyte growth factor
T3 sequence (P14210 32-728 limits assumed): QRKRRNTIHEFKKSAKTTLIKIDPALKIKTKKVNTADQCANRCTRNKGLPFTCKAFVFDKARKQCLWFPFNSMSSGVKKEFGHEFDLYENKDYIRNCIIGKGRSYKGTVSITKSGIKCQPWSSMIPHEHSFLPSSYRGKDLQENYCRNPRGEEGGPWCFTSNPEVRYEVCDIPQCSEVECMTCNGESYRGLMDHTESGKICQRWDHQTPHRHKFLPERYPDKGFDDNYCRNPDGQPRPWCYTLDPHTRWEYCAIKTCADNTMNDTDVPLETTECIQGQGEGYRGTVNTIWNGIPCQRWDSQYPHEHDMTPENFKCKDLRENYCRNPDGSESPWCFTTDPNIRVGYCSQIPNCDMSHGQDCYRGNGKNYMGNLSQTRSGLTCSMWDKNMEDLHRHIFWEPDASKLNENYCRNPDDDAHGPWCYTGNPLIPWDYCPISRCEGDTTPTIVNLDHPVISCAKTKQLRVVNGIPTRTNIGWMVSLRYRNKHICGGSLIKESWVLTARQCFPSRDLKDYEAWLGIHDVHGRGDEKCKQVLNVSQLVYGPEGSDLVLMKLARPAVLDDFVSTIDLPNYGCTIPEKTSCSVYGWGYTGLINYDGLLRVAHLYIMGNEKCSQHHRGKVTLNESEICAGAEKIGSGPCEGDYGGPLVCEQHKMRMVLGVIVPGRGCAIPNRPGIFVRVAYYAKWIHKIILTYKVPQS

[4] = molecular target: NRP1 (Neuropilin-1 Npn-1-His tag) (UniProt O14786-2 22-644); assay: SPR (Biacore); parent antibody

T1 sequence (P15692 other isoform, or with tags, fused parts or gaps limits assumed): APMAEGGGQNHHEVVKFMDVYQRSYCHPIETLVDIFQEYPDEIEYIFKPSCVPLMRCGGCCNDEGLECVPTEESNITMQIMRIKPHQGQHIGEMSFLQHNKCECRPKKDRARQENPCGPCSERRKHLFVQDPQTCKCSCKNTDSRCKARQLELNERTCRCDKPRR
Sequence of HGF (P14210 32-728 limits assumed): as the sequence (P14210 32-728 limits assumed) above

EC50 [1]: 1250 nM
B1: DVD491 (bispecific antibody, human IgG1, kappa)
heavy: not shown
light: DIQMTQSSSYLSVSLGGRVTITCKASDHINNWLAWYQQKPGNAPRLLISGATSLETGVPSRFSGSGSGKDYTLSITSLQTEDVATYYCQQYWSIPLTFGAGTKLELKRTVAAPDIQMTQSPSSLSASVGDRVTITCRASQVIRRSLAWYQQKPGKAPKLLIYAASNLASGVPSRFSGSGSGTDFTLTISSLQPEDFATYYCQQSNTSPLTFGQGTKVEIKRTVAAPSVFIFPPSDEQLKSGTASVVCLLNNFYPREAKVQWKVDNALQSGNSQESVTEQDSKDSTYSLSSTLTLSKADYEKHKVYACEVTHQGLSSPVTKSFNRGEC
notes: DVD-Ig; N-term; AB072 (DLL4), C-term; AB071 (VEGF); HC linker short, LC linker short; also called DVD-Ig DVD491; DVD491H/DVD491L

EC50 [2]: 6.7 nM
B4: DVD490 (bispecific antibody, human IgG1, kappa)
heavy: not shown
light: DIQMTQSPSSLSASVGDRVTITCRASQDVSTAVAWYQQKPGKAPKLLIYSASFLYSGVPSRFSGSGSGTDFTLTISSLQPEDFATYYCQQSYTTPPTFGQGTKVEIKRTVAAPDIQMTQSSSYLSVSLGGRVTITCKASDHINNWLAWYQQKPGNAPRLLISGATSLETGVPSRFSGSGSGKDYTLSITSLQTEDVATYYCQQYWSIPLTFGAGTKLELKRTVAAPSVFIFPPSDEQLKSGTASVVCLLNNFYPREAKVQWKVDNALQSGNSQESVTEQDSKDSTYSLSSTLTLSKADYEKHKVYACEVTHQGLSSPVTKSFNRGEC
notes: DVD-Ig; N-term; AB070 (VEGF), C-term; AB072 (DLL4); HC linker short, LC linker short; also called DVD-Ig DVD490; DVD490H/DVD490L

EC50 [1]: 58.5 nM
B7: DVD513 (bispecific antibody, human IgG1, kappa)
heavy: not shown
light: QAVVTQESALTTSPGETVTLTCRSSTGAVTTSNYANWVQEKPDHLFTGLIGGTNNRAPGVPARFSGSLIGDKAALTITGAQTEDEAIYFCALWYSNHWVFGGGTKLTVLGQPKAAPDIQMTQSPSSLSASVGDRVTITCRASQDVSTAVAWYQQKPGKAPKLLIYSASFLYSGVPSRFSGSGSGTDFTLTISSLQPEDFATYYCQQSYTTPPTFGQGTKVEIKRTVAAPSVFIFPPSDEQLKSGTASVVCLLNNFYPREAKVQWKVDNALQSGNSQESVTEQDSKDSTYSLSSTLTLSKADYEKHKVYACEVTHQGLSSPVTKSFNRGEC
notes: DVD-Ig; N-term; AB073 (DLL4), C-term; AB070 (VEGF); HC linker short, LC linker short; also called DVD-Ig DVD513; DVD513H/DVD513L

The next lines start with the binder.

B2: AB012 (antibody, human IgG1, kappa, V domains shown)
VH: QVQLVESGGGLVKPGGSLRLSCAASGFTFSDYYMSWIRQAPGKGLEWVSYISSSGSTIYYADSVKGRFTISRDNAKNSLYLQMNSLRAEDTAVYYCARDEYNSGWYVLFDYWGQGTLVTVSS
VL: DIQMTQSPSSVSASVGDRVTITCRASQGISSWLAWYQQKPGKAPNLLIYEASSLQSGVPSRFGGSGSGTDFTLTISSLQPEDFATYYCQQANGFPWTFGQGTKVEIKR
notes: also called AB012VH; AB012VL
Kd (HGF): < 0.0284 nM
koff (HGF): 0.000284 s⁻¹
kon (HGF): > 1e+07 M⁻¹ s⁻¹

B3: AB047 (antibody, human IgG1, kappa, V domains shown)
VH: QVQLQQSGAELVKPGASVKISCKASGYTFTDYYINWVKLAPGQGLEWIGWIYPGSGNTKYNEKFKGKATLTIDTSSSTAYMQLSSLTSEDTAVYFCVRDSPFFDYWGQGTLLTVSS
VL: DIVLTQSPDSLAVSLGERVTMNCKSSQSLLNSGMRKSFLAWYQQKPGQSPKLLIYWASTRESGVPDRFTGSGSGTDFTLTISSVQAEDVAVYYCKQSYHLFTFGSGTKLEIKR
notes: also called AB047VH; AB047VL
Kd (PlGF (Placental GF)): 0.0285 nM
koff (PlGF (Placental GF)): 0.000108 s⁻¹
kon (PlGF (Placental GF)): 3.8e+06 M⁻¹ s⁻¹

B5: DVD497 (bispecific antibody, human IgG1, kappa)
heavy: not shown
light: DIQMTQSSSYLSVSLGGRVTITCKASDHINNWLAWYQQKPGNAPRLLISGATSLETGVPSRFSGSGSGKDYTLSITSLQTEDVATYYCQQYWSIPLTFGAGTKLELKRTVAAPSVFIFPPDIQMTQSPSSLSASVGDRVTITCRASQVIRRSLAWYQQKPGKAPKLLIYAASNLASGVPSRFSGSGSGTDFTLTISSLQPEDFATYYCQQSNTSPLTFGQGTKVEIKRTVAAPSVFIFPPSDEQLKSGTASVVCLLNNFYPREAKVQWKVDNALQSGNSQESVTEQDSKDSTYSLSSTLTLSKADYEKHKVYACEVTHQGLSSPVTKSFNRGEC
notes: DVD-Ig; N-term; AB072 (DLL4), C-term; AB071 (VEGF); HC linker long, LC linker long; also called DVD-Ig DVD497; DVD497H/DVD497L
EC50 [3]: 858 nM

B6: DVD033 (RON (seq. 1) N-terminal / HGF (seq. 1) C-terminal DVD-Ig) (bispecific antibody, human IgG1, kappa)
heavy: not shown
light: DVVMTQSPLSLPVTPGEPASISCRSSQSLLHSNGFNYVDWYLQKPGQSPHLLIYFGSYRASGVPDRFSGSGSGTDFTLKISRVEAEDVGVYYCMQALQTPPWTFGQGTKVEIRRTVAAPDIQMTQSPSSVSASVGDRVTITCRASQGISSWLAWYQQKPGKAPNLLIYEASSLQSGVPSRFGGSGSGTDFTLTISSLQPEDFATYYCQQANGFPWTFGQGTKVEIKRTVAAPSVFIFPPSDEQLKSGTASVVCLLNNFYPREAKVQWKVDNALQSGNSQESVTEQDSKDSTYSLSSTLTLSKADYEKHKVYACEVTHQGLSSPVTKSFNRGEC
notes: also called DVD033H/DVD033L
IC50 (recombinant human HGF): 8.7 nM

B8: AB016 (antibody, human IgG1, kappa, V domains shown)
VH: EVQLVESGGGLVQPGGSLRLSCAASGFSFSSEPISWVRQAPGKGLEWVSSITGKNGYTYYADSVKGRFTISADTSKNTAYLQMNSLRAEDTAVYYCARWGKKVYGMDVWGQGTLVTVSS
VL: DIQMTQSPSSLSASVGDRVTITCRASQSISSYLAWYQQKPGKAPKLLIYGASSRASGVPSRFSGSGSGTDFTLTISSLQPEDFATYYCQQYMSVPITFGQGTKVEIKR
notes: also called AB016VH; AB016VL
Kd [4]: 2.67 nM
koff [4]: 0.00039 s⁻¹
kon [4]: 147000 M⁻¹ s⁻¹
